Reference: the supplement of paper PMC9170038

Test system: MS2 coat protein
Assay: apparent KD of MS2 coat protein; designed switch direction (-1 OFF switch, 1 ON switch): -1; higher = weaker reporter binding
In short: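 Each step of the titration lasted 0.8–1.5 h at the lowest concentration and 10–20 min at the highest. The protein, SNAP-549-labelled MS2 coat protein, went from 0.7 or 1.5 nM doubling to 3 µM over RNA switches transcribed on Illumina chips by stalled E. coli RNA polymerase. Normalised cluster fluorescence was curve-fitted, and the per-design median over clusters is given as apparent KD.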

[1] = Eterna round: R95, input ligand: FMN 200 uM
[2] = Eterna round: R95, input ligand: microRNA oligo, concentration not stated
[3] = Eterna round: R95, input ligand: none
[4] = input ligand: microRNA oligo, concentration not stated

Sequence	apparent KD of MS2 coat protein [1]	apparent KD of MS2 coat protein [2]	apparent KD of MS2 coat protein [3]	apparent KD of MS2 coat protein (input ligand: FMN 200 uM)	apparent KD of MS2 coat protein [4]	apparent KD of MS2 coat protein (input ligand: none)
CUGGACCGAGGAUAUAUUAUGUGAAACAUGAGGAUCACCCAUGUAAUAUGAUGGAUGUAAAUAGAAGGCGGUCUAG [Mat - Exclusion 5 - JL mod - D28] (puzzle: Exclusion 5)	34.5 nM	35.1 nM	47.3 nM	–	–	–
UUUUUAGUGCUUUUUAAGUACAUGAGGAUCACCCAUGUACUUGUCUGGUGGUCCGGACAAGCUUUUUGCUCGUCUAG [Sensor v3 - turn-off variant 1 - 3] (Eterna round: R96, puzzle: Sensor v3, turn-off variant 1)	–	–	–	35.6 nM	27.4 nM	35.8 nM
GAUUAUGCGAGCUUUAGGGACAUGAGGAUCACCCAUGUUCGUCUUAUUGGUCUGAAUGCACUGACAUACCUAAAUCU [JMF 76] (puzzle: Sensor v3, turn-off variant 1)	18.7 nM	24.2 nM	17.5 nM	–	–	–
AUCAUGUCAGGAUAUGUGACAUGGAUCUUCGGAUCAAGAUCACAGAAGGGACAUGAGGAUCACCCAUGUCGAUC [Ex4-3: 29] (puzzle: Exclusion 4)	–	66.9 nM	–	–	–	–
CCGCCACAUGAGGAUCACCCAUGUCAGGAUAUCUAUCAUAGCAUCGAAAGAUGCGGGUAGAGAAGGGACUAUCC [ChP Ext 10-04-2015 #6] (puzzle: Exclusion 1)	–	28.1 nM	–	–	–	–
UAAAAGAAGGUCAGGAUAUGUAGUGAGCAAUCAGGACAGAAGGGACAUGAGGAUCACCCAUGUAACAGGGUAAA [Eninares] (puzzle: Brourd's mod of Exclusion 4)	104 nM	44.6 nM	43.1 nM	–	–	–
CGGGCCGGCCUUCCGGCCGGCCCGACAUGAGGAUCACCCAUGUAGGAUAUCCCGGCUGCCGGCCGGGAGAAGGACAUGCGCCCG [-45.9, -45.9 kcal, 17% A] (Eterna round: R96, puzzle: Exclusion NG 3)	–	–	–	104 nM	65.3 nM	49.3 nM
AAAUUCUGAGGAUAUCGAUGUUUGUACAUGAGGAUCACCCAUGUCCUUUUUAUUUUUUCUCGAGAAGGCAGUGUAU [JR_E5_Sub100] (Eterna round: R96, puzzle: Exclusion 5)	–	–	–	48.1 nM	32 nM	40.7 nM
GCGAAAGCAAGCAAGUGAAACAUGAGGAUCACCCAUGUCCUCAUUUGCUCGUCUUAUAAAAGCUAUCGAAAGAUAGC [Sensor 3, v1 - 1] (puzzle: Sensor v3, turn-off variant 1)	11.6 nM	172 nM	13.5 nM	–	–	–
CUAAUUUGUGUGAGGAUAUGGCGACAGGAGACUAGCCAGAAGGUACAUGAGGAUCACCCAUGUAAGGUCCUCUC [Eternabot (L1) Solution 86] (Eterna round: R97, puzzle: Brourd's mod of Exclusion 4)	–	–	–	16.8 nM	–	16.3 nM
GCACGGAGUGUAGGAUAUCUGUGCGAUUAGCUCAGAGAAGGACACAUGAGGAUCACCCAUGUGUUCCACGGAAACGUACCGUGC [Eli exng1 - 050] (Eterna round: R96, puzzle: Exclusion NG 1)	–	–	–	11.2 nM	8.87 nM	12.5 nM
GUUCGUGAGAAGGAUAUGAUUCUGGAACAAGAGUUAGAAGGUUUCACAUGAGGAUCACCCAUGUCUAGAAAACC [Eternabot (Original) Solution 32] (Eterna round: R97, puzzle: Exclusion 6)	–	–	–	12.2 nM	–	10.7 nM
GAUGCUUCGGCAUCUACAAGCUUUUUGCUCGUCUUAUUAACAUGAGGAUCACCCAUGUACAAGAGACCUCAUGUAUU [Sensor v3 - turn-off variant 2 - 12] (puzzle: Sensor v3, turn-off variant 2)	125 nM	14.3 nM	202 nM	–	–	–
AGUACUAUCACGAAAGUGAUAGUACAACGAGCUUGUGAAACAUGAGGAUCACCCAUGUCCUCAUGAGUUCGUCUUAU [JL turnoff v2 67] (Eterna round: R96, puzzle: Sensor v2, turn-off variant 2)	–	–	–	13.9 nM	65.4 nM	15.7 nM
GUCAGCUCGUGAGGAUAUGCACAUGAGGAUCACCCAUGUAAGAUCAAGCUGCUUCGGCAGCAAGUGCAGAAGGUACGAGCUGAU [ENG2/9-C3] (Eterna round: R96, puzzle: Exclusion NG 2)	–	–	–	257 nM	225 nM	286 nM
GUCGUGCGGCUUUGCUGUACGAGUACAUGAGGAUCACCCAUGUAGGAUAUGGUUCGUUUUGCGUGCUAGAAGGGCGUGCGUUGU [Excl-NG3-LRO15] (Eterna round: R96, puzzle: Exclusion NG 3)	–	–	–	–	17.9 nM	–
CUCCUCGUGGCGCCUAAACACAUGAGGAUCACCCAUGUACAGGCUUUUUGCCGUCUUAUAAUAAAACCGAGGAGGCG [Arce] (puzzle: Sensor v3, turn-off variant 1)	13.7 nM	22.1 nM	15.9 nM	–	–	–
UAUUAGCAAGCAACUGGGUACAUGAGGAUCACCCAUGUGCUCGUCUUAUAAGGUACUGUGACGAAAGUUACGGUACC [mod--Eli115] (Eterna round: R97, puzzle: Sensor, turn-off variant 1)	–	–	–	17.9 nM	–	17.4 nM
UUUUUGUCAGGAUAUGACUAGAUGCACGUUAGUGCAUCUACUUAGAAGGGACAUGAGGAUCACCCAUGUAUUCC [Bring Us a Shrubbery-12] (puzzle: Exclusion 4)	–	27.3 nM	–	–	–	–
GCUGCGCGAGGAUAUGCGGUUCGCGCGGUGGCCCGUGGCGGACAUGAGGAUCACCCAUGUAGAAGGCGUGCGGG [Apr-15 SS2-59] (puzzle: Exclusion 2)	–	11.2 nM	–	–	–	–
CAGUACUGCAAGCUAUGGGACAUGAGGAUCACCCAUGUUCGUCUUAUUGAUCUAGGUACGCUGACGUACCUAGAUCU [JL-sv1-2.20 Brourd mod] (puzzle: Sensor v3, turn-off variant 1)	16.3 nM	20.5 nM	15.9 nM	–	–	–
CUCGUGCAGCUUUGCUGUACGAGUACAUGAGGAUCACCCAUGUAGGAUAUGGUACGCAAAGCGUGCCAGAAGGACGUGCGUUAG [Mat - Exclusion NG 3 - Mod of JL - D93] (Eterna round: R96, puzzle: Exclusion NG 3)	–	–	–	78.7 nM	29.9 nM	33.1 nM
AAACCCAGAGGAUAUGCUGACUCCGACAUGAGGAUCACCCAUGUAGCGACUCUUCAUGCAGCAGAAGGUUGAUUUU [Eternabot (L1) Solution 66] (Eterna round: R97, puzzle: Exclusion 5)	–	–	–	235 nM	–	271 nM
UAGCAUUGCCUUUGGUAGUGCUUUACAUGAGGAUCACCCAUGUAGGAUAUGGUAGGCAAAGCUUACCAGAAGGACAUGAUAAUU [Mat - Exclusion NG 3 - Mod of JL - D11] (Eterna round: R96, puzzle: Exclusion NG 3)	–	–	–	198 nM	51.6 nM	76 nM
